# Experimental data taken from the supplement of paper PMC9170038.
# Test system: MS2 coat protein
# Test: apparent KD of MS2 coat protein, switch OFF state (with FMN for OFF switches, without FMN for ON switches); designed switch direction (-1 OFF switch, 1 ON switch): 1; higher = weaker reporter binding
# Conditions: FMN input: 0 or 200 uM; Eterna round: R93 (includes R88 designs)
# How it was run: (§1)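 Apparent KD per design is the median of normalised cluster binding-curve fits. Designed RNA switches transcribed on-chip from Illumina sequencing clusters were titrated with SNAP-549-labelled MS2 coat protein in twofold steps from 0.7 or 1.5 nM to 3 µM, with 0.8–1.5 h down to 10–20 min per step. Buffer: 100 mM Tris-HCl pH 7.5, 80 mM KCl, 4 mM MgCl2, without or with constant ligand.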
row,Sequence,apparent KD of MS2 coat protein [nM]
1,AGGAGACAUGAGGAUCACCCAUGUGAGAAGAGGCGAGGAUAUCGAAAGAAAGAAGAGAAACGAGAAGGCGCGAGCA [salish99-SS1-020],37.1
2,AACAAUCUAUCUGAGGAUAUAUGUCGAAAGACAUGAGGAUCACCCAUGUGAAAACAUGAAAAGACAUAGAAGGCAGAUAGAUUGA [SS2: 1131],47.3
3,AGGAGACAUGAGGAUCACCCAUGUGCACGGUGAAGAGGAUAUGUGCGUGGAGAGACACGGACAGAAGGCUUAAGAA [JR_SameState1_Sub5],38.9
4,AGAAAACAUGAGGAUCACCCAUGUAGGAAUAUGGGAGGAUAUACAAAGACGAAAGUCAGAGUAGAAGGCCUAGGAA [salish99-SS1-089],71.5
5,AUAAAGAAAAGGCAGGAUAUGUAAACUAAAACAUGAGGAUCACCCAUGUGGGAAAUAAAAUAAAAACAGAAGGGCCAAAAGAAUA [Designing denovo 17],32.8
6,GGGAGGAAGAGAGAGGAUAUCCAAAGGAAAACAUGAGGAUCACCCAUGUAAAAGGUAGGAAAUUGGGAGAAGGCUCAAGAGAAAG [salish99-ss2-054],51.6
7,AUAAAACAUGAGGAUCACCCAUGUGAAAAUAUGGGAGGAUAUACGUAGACGAAAGUCGACGUAGAAGGCCUAAAAG [Same State 1.4n.2 (Mat - Mod of Eli - )],81.8
8,CGCGAACAUGAGGAUCACCCAUGUGAAAAACACAGAGGAUAUGUCGCAUGCGUGUAAAAGACAGAAGGCUGUCGCG [mod of top voted: #3],84
9,AUAAAACAUGAGGAUCACCCAUGUAGAAAUAUGGGAGGAUAUACAAAGACGAAAGUCAAAGUAGAAGGCCUAAAAG [Mod of Meechl's design Meechl MS2 SS1 2],66.2
10,AGAAAUAAAGCUGAGGAUAUCCAAAACCAAACAUGAGGAUCACCCAUGUAAAAGAAAAUAAAAUGGGAGAAGGCAGCAAAUAAGA [Designing denovo 8],21.9
11,GGAAAACAUGAGGAUCACCCAUGUGAAAACGUGGGAGGAUAUCGAUGGAAACCAUACUGUCGAGAAGGCCCAUGUC [EteRNA is fun!],47.2
12,AGGAAACAUGAGGAUCACCCAUGUAAAAAUAUGGGAGGAUAUACAAACAGGAAAGAGAGAGUAGAAGGCCUAAAAG [Garnet 20],41.8
13,GGGAGGAAGAGAGAGGAUAUCCAAAGGAAAACAUGAGGAUCACCCAUGUAAAAGGUAGGAAAUUGGGAGAAGGCUCAAGAGAGGG [salish99-ss2-051],28
14,GGAGUACAUGAGGAUCACCCAUGUUGGAACAAAGUAGGAUAUGUACAAUAUUAAAUAAAAACAGAAGGACUAAGAA [Gold Rush],37.1
15,UGAAGACAUGAGGAUCACCCAUGUGGGAUUAUGGGAGGAUAUACAAAGACGAGAGUCAGAGUAGAAGGCCUAGGAG [salish99-ss1-118(!)],67.9
16,AACAAUCUAUCUGAGGAUAUCAUGUCAAAGACAUGAGGAUCACCCAUGUCCAGGAAAACUGGAUAUGAGAAGGCAGAUAGAUUGA [SS2: 1105],3310

# Test system: MS2 coat protein
# Test: apparent KD of MS2 coat protein, switch ON state; designed switch direction (-1 OFF switch, 1 ON switch): 1; higher = weaker reporter binding
# Conditions: FMN input: 0 or 200 uM; Eterna round: R93 (includes R88 designs)
# How it was run: as §1
row,Sequence,apparent KD of MS2 coat protein [nM]
1,AGGAGACAUGAGGAUCACCCAUGUGAGAAGAGGCGAGGAUAUCGAAAGAAAGAAGAGAAACGAGAAGGCGCGAGCA [salish99-SS1-020],19.7
2,AACAAUCUAUCUGAGGAUAUAUGUCGAAAGACAUGAGGAUCACCCAUGUGAAAACAUGAAAAGACAUAGAAGGCAGAUAGAUUGA [SS2: 1131],27.4
3,AGGAGACAUGAGGAUCACCCAUGUGCACGGUGAAGAGGAUAUGUGCGUGGAGAGACACGGACAGAAGGCUUAAGAA [JR_SameState1_Sub5],23
4,AGAAAACAUGAGGAUCACCCAUGUAGGAAUAUGGGAGGAUAUACAAAGACGAAAGUCAGAGUAGAAGGCCUAGGAA [salish99-SS1-089],20.7
5,AUAAAGAAAAGGCAGGAUAUGUAAACUAAAACAUGAGGAUCACCCAUGUGGGAAAUAAAAUAAAAACAGAAGGGCCAAAAGAAUA [Designing denovo 17],19.1
6,GGGAGGAAGAGAGAGGAUAUCCAAAGGAAAACAUGAGGAUCACCCAUGUAAAAGGUAGGAAAUUGGGAGAAGGCUCAAGAGAAAG [salish99-ss2-054],29.8
7,AUAAAACAUGAGGAUCACCCAUGUGAAAAUAUGGGAGGAUAUACGUAGACGAAAGUCGACGUAGAAGGCCUAAAAG [Same State 1.4n.2 (Mat - Mod of Eli - )],28.8
8,CGCGAACAUGAGGAUCACCCAUGUGAAAAACACAGAGGAUAUGUCGCAUGCGUGUAAAAGACAGAAGGCUGUCGCG [mod of top voted: #3],19.7
9,AUAAAACAUGAGGAUCACCCAUGUAGAAAUAUGGGAGGAUAUACAAAGACGAAAGUCAAAGUAGAAGGCCUAAAAG [Mod of Meechl's design Meechl MS2 SS1 2],24
10,AGAAAUAAAGCUGAGGAUAUCCAAAACCAAACAUGAGGAUCACCCAUGUAAAAGAAAAUAAAAUGGGAGAAGGCAGCAAAUAAGA [Designing denovo 8],12.5
11,GGAAAACAUGAGGAUCACCCAUGUGAAAACGUGGGAGGAUAUCGAUGGAAACCAUACUGUCGAGAAGGCCCAUGUC [EteRNA is fun!],18.5
12,AGGAAACAUGAGGAUCACCCAUGUAAAAAUAUGGGAGGAUAUACAAACAGGAAAGAGAGAGUAGAAGGCCUAAAAG [Garnet 20],72.9
13,GGGAGGAAGAGAGAGGAUAUCCAAAGGAAAACAUGAGGAUCACCCAUGUAAAAGGUAGGAAAUUGGGAGAAGGCUCAAGAGAGGG [salish99-ss2-051],23.6
14,GGAGUACAUGAGGAUCACCCAUGUUGGAACAAAGUAGGAUAUGUACAAUAUUAAAUAAAAACAGAAGGACUAAGAA [Gold Rush],23.3
15,UGAAGACAUGAGGAUCACCCAUGUGGGAUUAUGGGAGGAUAUACAAAGACGAGAGUCAGAGUAGAAGGCCUAGGAG [salish99-ss1-118(!)],39.5
16,AACAAUCUAUCUGAGGAUAUCAUGUCAAAGACAUGAGGAUCACCCAUGUCCAGGAAAACUGGAUAUGAGAAGGCAGAUAGAUUGA [SS2: 1105],179
